{"source": "paper PMC2652392", "about": "“The Structural Basis of Gas-Responsive Transcription by the Human Nuclear Hormone Receptor REV-ERBβ” (PLoS Biology, 2009)", "binders": {"B1": {"name": "NCOR interaction domain I (IDI) peptide (peptide)", "peptide": "fluorescein-DPASNLGLEDIIRKALMGSF", "notes": "also called NCOR peptide; Nuclear Receptor Co-repressor peptide"}}, "key": {"[1]": {"molecular_target": "T1, REV-ERBβ ligand-binding domain (human, UniProt Q14995 212-579)", "T1 chain": "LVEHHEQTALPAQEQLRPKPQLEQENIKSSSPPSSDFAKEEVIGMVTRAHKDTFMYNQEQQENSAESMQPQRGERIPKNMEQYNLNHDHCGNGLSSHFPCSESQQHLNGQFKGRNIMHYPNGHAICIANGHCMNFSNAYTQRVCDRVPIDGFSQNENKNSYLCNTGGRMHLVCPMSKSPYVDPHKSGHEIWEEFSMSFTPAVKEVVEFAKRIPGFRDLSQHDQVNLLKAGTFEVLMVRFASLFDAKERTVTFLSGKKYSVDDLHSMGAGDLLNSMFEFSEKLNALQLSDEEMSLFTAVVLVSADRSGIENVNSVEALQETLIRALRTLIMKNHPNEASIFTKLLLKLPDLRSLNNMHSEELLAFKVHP", "assay": "FP; no heme, control"}, "[2]": {"molecular_target": "T2, REV-ERBα ligand-binding domain (residues 274–614 with an internal deletion of residues 324–422) (human, UniProt P20393 274-614, internal deletion of residues 324–422)", "T2 sequence": "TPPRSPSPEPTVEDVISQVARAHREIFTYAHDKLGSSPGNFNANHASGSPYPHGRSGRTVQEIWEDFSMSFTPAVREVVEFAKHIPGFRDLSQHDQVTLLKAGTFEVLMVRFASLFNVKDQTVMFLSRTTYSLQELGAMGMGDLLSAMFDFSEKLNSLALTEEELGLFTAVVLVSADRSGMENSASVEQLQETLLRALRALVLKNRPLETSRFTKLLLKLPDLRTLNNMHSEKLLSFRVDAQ", "assay": "FP; no heme, control"}, "[3]": {"molecular_target": "T1, REV-ERBβ ligand-binding domain", "assay": "FP; heme-bound, control"}, "[4]": {"molecular_target": "T2, REV-ERBα ligand-binding domain …", "assay": "FP; heme-bound, control"}, "[5]": {"molecular_target": "T1, REV-ERBβ ligand-binding domain", "assay": "FP; no heme, + SNAP (NO donor)"}, "[6]": {"molecular_target": "T2, REV-ERBα ligand-binding domain …", "assay": "FP; no heme, + SNAP (NO donor)"}, "[7]": {"molecular_target": "T1, REV-ERBβ ligand-binding domain", "assay": "FP; heme-bound, + SNAP (NO donor)"}, "[8]": {"molecular_target": "T2, REV-ERBα ligand-binding domain …", "assay": "FP; heme-bound, + SNAP (NO donor)"}, "[9]": {"molecular_target": "T3, REV-ERBα ligand-binding domain (residues 274–614 with an internal deletion of residues 324–422) (human, UniProt P20393 274-614, internal deletion of residues 324–422)", "T3 construct": "REV-ERBα, human, GenBank CAB53540, residues 274–614 with an internal deletion of residues 324–422; heme is a non-covalent ligand; Modified pET28a vector; also called REV-ERBα LBD; source: E. coli BL21-Gold(DE3) pLysS, with or without hemin in the medium, purified (Ni-NTA)", "T3 sequence (looked up)": "T2 sequence", "assay": "fluorescence polarisation; 110 nM N-terminally fluorescein-labelled NCOR peptide with a dilution series of LBD; 100 mM Tris pH 8.2, 150 mM NaCl; apo or heme-bound LBD, with or without the NO donor SNAP (1,200 μM); 384-well plates", "settings": "both partners purified"}}, "note": "No end group written: not given here.", "data": [{"binder": "B1", "values": [{"measurement": "Kd", "setting": "[1]", "result": 16.8, "unit": "µM"}, {"measurement": "Kd", "setting": "[2]", "result": 4.1, "unit": "µM"}, {"measurement": "Kd", "setting": "[3]", "result": 193, "unit": "µM"}, {"measurement": "Kd", "setting": "[4]", "result": 51.1, "unit": "µM"}, {"measurement": "Kd", "setting": "[5]", "result": 20.4, "unit": "µM"}, {"measurement": "Kd", "setting": "[6]", "result": 3.7, "unit": "µM"}, {"measurement": "Kd", "setting": "[7]", "result": 99.7, "unit": "µM"}, {"measurement": "Kd", "setting": "[8]", "result": 2.9, "unit": "µM"}, {"measurement": "binding result", "setting": "[9]", "result": "binds"}]}]}
